Values belong to the molecule of their own block, whether it stands above or below them.
Tests used:
[1] = target: Human Tau K18 2×VY (I278V/N279Y) (human) (UniProt P10636); assay: cell-based or functional assay
[2] = target: Human Tau K18 2×IN (V308I/Y309N) (human) (UniProt P10636); assay: cell-based or functional assay
[3] = target: Human Tau40 (residues 1-441) with a C-terminal His-tag (human, UniProt P10636 1-757); assay: cell-based or functional assay
[4] = target: the molecule itself; assay: MicroED structure of fibril nanocrystals; self-association
Experimental: (§1) Nanocrystals of […] (SEQ ID NO: 12) synthetic peptide (purchased from Genscript) were prepared from 30 mg/ml stocks dissolved in water by the addition of 45 mM arachidonic acid to concentrated peptide. Subsequently crystals were grown in batch at 37° C. by the addition of 10 μl of precipitant (32% PEG10K in 100 mM phosphate citrate, pH 4.2) to 5 μl of protein. After 18 hours nanocrystals were resuspended by pipetting, spun down in an epitube and the resulting crystalline pellet was washed three times with water. Nanocrystals of VQIINK (SEQ ID NO: 11) peptide (purchased from Genscript) were grown by vapor diffusion from peptide at 15 mg/ml as a 1:2 drop ratio (protein:reservoir) from 0.29 M LiNO3, 24% (w/v) PEG 3350 at 18° C. and similarly harvested for data collection.
(§2) MicroED data were collected by spotting 2-3 μl of crystals onto TEM grids with carbon film support and plunge frozen in liquid ethane using a Vitrobot Mark IV (FEI). Diffraction images were collected on an FEI Tecnai F20 TEM at 200 kV as a continuous rotation tilt series at a rate of 0.2° per second with 2 second exposures per image. Diffraction data from several crystals were indexed, merged and scaled with XDS and XSCALE.²⁷ Molecular replacement was performed with Phaser²⁸ using a polyalanine search model composed of an ideal β-strand. The structure of VQIINK (SEQ ID NO: 11) was solved using a truncated version of […] […]

[5] = target: the molecule itself; assay: MicroED structure of nanocrystals; self-association
Experimental: as §1, §2

Chain of Human Tau40 (residues 1-441) with a C-terminal His-tag (P10636 other isoform, or with tags, fused parts or gaps): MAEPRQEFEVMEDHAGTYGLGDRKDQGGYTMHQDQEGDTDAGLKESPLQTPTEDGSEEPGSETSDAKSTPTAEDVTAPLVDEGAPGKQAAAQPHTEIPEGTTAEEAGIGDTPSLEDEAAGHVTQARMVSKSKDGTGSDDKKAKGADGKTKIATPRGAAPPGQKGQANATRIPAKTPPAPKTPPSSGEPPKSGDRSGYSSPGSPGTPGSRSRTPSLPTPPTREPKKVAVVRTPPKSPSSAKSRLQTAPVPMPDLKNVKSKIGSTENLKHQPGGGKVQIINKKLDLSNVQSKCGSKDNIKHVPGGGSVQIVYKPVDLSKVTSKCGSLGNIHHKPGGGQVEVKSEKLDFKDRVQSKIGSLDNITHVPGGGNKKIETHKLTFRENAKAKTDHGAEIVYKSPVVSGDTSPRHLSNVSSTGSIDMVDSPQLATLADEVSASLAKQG

Molecule: Human Tau K18 2×VY (I278V/N279Y) (from UniProt P10636 561-689)
- ThT fluorescence, time to half maximum of fibril formation (50 µM, heparin, shaking, 37° C.) [1]: 220 min

Molecule: Human Tau K18 2×IN (V308I/Y309N) (from UniProt P10636 561-689)
- ThT fluorescence, time to half maximum of fibril formation (50 µM, heparin, shaking, 37° C.) [2]: 70 min

B1: KVQIINKKLD synthetic peptide (ten residue Tau segment) (peptide)
peptide: KVQIINKKLD
notes: The peptide corresponds to Tau40 residues 274-283; also called ten residue VQIINK segment
- binding result [4]: binds

Molecule: VQIINK [VQIINK peptide (six residue Tau segment)]
- binding result [5]: binds

Molecule: DVQMINKKRK [MINK inhibitor peptide]
- IC50 of inhibition of seeding by pre-formed Tau40 fibers in biosensor cells [3]: 22 µM

The next lines start with the values.

- IC50 of inhibition of seeding by pre-formed Tau40 fibers in biosensor cells [3]: 9 µM
Molecule: DVWMINKKRK [W-MINK Phase 2 inhibitor peptide]

- IC50 of inhibition of seeding by pre-formed Tau40 fibers in biosensor cells [3]: 25 µM
Molecule: DVQWINKKRK [WINK inhibitor peptide]

From patent publication US20200017563A1 (University of California, published 2020)
